Patent US20090148510A1 (Stanford University, published 2009)
Blank lines part the entries; values can stand above or below the binder they belong to.

Assays:
[1] = target: T1, purified β2AR having an amino terminal Flag epitope tag and a carboxyl hexahistidine tag (UniProt P07550 1-413); assay: isothermal titration calorimetry, detergent-solubilized β2AR, 25° C.
T1 construct: also called β2 adrenoreceptor; denatured β2AR (when treated with SDS); not shown: carboxyl hexahistidine tag (six His)
Protocol: ITC measurements were performed at 25° C. using a VP-ITC calorimeter (Microcal, Inc.). […] Titrations were initiated with a 3 μl injection, followed by a series of 8 μl injections (37 β₂AR and 31 for β₂AR buffer blank), with 240 s between injections. After subtracting the blank titration, the measured heat released upon binding was plotted against the Fab:β₂AR molar ratio, and the data were fitted to a single-site binding model to obtain the association constant Ka, enthalpy change ΔH, and stoichiometry n using the Origin software package¹ (Microcal, Inc.)

[2] = target: T2, β2AR labeled at C265 with tetramethylrhodamine (UniProt P07550 1-413, tetramethylrhodamine on C265); assay: antibody dose-response on fluorescence of β2AR-TMR (labeled at C265), 4 nM receptor
T2 construct: Detergent-solubilized (0.1% dodecylmaltoside) purified receptor; also called β2AR-TMR

Kd [1]: 150 nM
B1: Fab 5 (Fab fragment of antibody 5) (Fab, V domains shown)
VH: EVQLQQSGAELARPGASVKLSCKASGYIFTDYYINWVRQRTGQGFEWIGEIYPGSGNIDYNERFKDKATLTADKSSSTAYMQLSSLTSEDSAVYFCVRGFGYWGQGTTLTVSS
VL: DIKMTQSPSSMYASLGERVTITCKASQDINSYLSWFQQKPGKSPKTLIYRANRLVDGVPSRFIGTGSGQDYSLTISSLDYEDMGIYYCLQYDEFPYTFGGGTKLEIKR
notes: Made by papain cleavage of purified mouse antibody 5 and purified by ion exchange (Mono Q) chromatography; also called Fab5 antibody; Fab 5 fragments

EC50 [2]: 23 nM
B2: antibody 5 (intact mouse monoclonal antibody) (antibody, V domains shown)
VH: B1 VH
VL: B1 VL
notes: Mouse IgG from hybridoma; also called Mab5; Mab5 IgG
